This note sets out measurements from patent publication US20110293511A1, “SPECIFIC BINDING PROTEINS AND USES THEREOF” (priority 2009, published 2011).

Bounds are passed on as bounds.

The target in assay [1] is wild-type EGFR (wtEGFR) (human) (UniProt P00533). Nature of the assay: immunohistochemistry on glioblastoma tissue; EGFR amplified, no de2-7 EGFR.
The target in assay [2] is de2-7 EGFR (human) (UniProt P00533). Nature of the assay: immunohistochemistry on glioblastoma tissue; EGFR amplified, de2-7 EGFR expressed.
The target in assay [3] is wild-type EGFR (wtEGFR) (human) (UniProt P00533). As to the kind of experiment: Scatchard, 125I-labeled 528 on A431 cells.
Assay [4] has the same target. As to the kind of experiment: Scatchard, A431 cells.

Take mAb528 (antibody): the percent of immunoreactive cells (immunohistochemistry) in assay [1] and in assay [2] was above 75% each time. This substance also showed a binding sites per cell (sites per cell) in assay [3] of 2e+06. The receptors per cell (receptors per cell) in assay [4] came out at 2e+06.
